# Assay results reported in US20050100554A1 (published 2005).
# T1: Human Papillomavirus 1a L1 (Human Papillomavirus 1a, UniProt P03099 1-508)
# T1 construct: also called HPV 1a L1; cbe_252016
# T1 sequence: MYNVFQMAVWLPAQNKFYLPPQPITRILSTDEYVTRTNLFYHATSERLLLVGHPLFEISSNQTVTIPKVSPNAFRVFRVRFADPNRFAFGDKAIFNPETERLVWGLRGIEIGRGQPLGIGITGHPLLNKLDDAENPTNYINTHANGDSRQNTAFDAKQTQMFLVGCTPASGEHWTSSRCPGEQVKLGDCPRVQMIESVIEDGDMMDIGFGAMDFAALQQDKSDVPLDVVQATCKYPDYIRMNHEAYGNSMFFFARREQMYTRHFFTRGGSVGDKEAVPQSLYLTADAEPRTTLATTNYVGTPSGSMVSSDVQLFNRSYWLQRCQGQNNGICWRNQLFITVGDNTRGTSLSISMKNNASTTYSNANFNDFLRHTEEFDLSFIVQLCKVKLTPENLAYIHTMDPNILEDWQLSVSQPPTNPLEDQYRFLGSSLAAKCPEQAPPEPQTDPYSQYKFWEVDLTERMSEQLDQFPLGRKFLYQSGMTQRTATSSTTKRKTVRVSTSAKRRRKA
# T2: SCO1 (human, UniProt O75880 68-301)
# T2 construct: also called cbe_1699351
# T2 sequence: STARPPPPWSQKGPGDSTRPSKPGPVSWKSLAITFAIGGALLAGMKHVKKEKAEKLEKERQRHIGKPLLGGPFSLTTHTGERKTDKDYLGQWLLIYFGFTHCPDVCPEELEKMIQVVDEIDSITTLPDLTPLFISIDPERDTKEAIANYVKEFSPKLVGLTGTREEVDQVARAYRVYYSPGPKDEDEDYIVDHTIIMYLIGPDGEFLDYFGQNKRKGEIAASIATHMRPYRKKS
# T3: steroid receptor RNA activator 1 (human, UniProt Q9HD15 1-224)
# T3 construct: also called SRA1; cbe_4344185
# T3 sequence: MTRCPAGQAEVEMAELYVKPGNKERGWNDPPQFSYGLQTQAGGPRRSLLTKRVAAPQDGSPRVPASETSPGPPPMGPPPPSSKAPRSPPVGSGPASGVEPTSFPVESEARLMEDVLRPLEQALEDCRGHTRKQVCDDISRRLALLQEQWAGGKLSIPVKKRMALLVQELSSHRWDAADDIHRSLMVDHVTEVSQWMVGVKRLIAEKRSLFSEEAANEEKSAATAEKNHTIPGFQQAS
# T4: KRT8 (human, UniProt P05787 1-483)
# T4 construct: also called cbe_4269571
# T4 sequence: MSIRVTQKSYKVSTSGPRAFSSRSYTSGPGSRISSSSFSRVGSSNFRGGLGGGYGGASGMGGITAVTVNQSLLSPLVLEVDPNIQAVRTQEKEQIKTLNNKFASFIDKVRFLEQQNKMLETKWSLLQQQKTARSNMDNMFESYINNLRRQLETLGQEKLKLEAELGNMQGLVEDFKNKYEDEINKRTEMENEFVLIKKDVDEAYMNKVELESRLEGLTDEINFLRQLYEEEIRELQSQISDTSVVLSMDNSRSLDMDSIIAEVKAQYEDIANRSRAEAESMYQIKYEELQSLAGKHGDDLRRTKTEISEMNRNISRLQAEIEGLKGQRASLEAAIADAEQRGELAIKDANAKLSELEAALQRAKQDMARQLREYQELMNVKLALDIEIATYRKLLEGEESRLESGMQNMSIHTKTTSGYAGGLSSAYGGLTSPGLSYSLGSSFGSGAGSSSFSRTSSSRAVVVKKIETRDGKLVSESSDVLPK
# T5: rho/rac guanine nucleotide exchange factor (GEF) 2 (human, UniProt Q92974 28-986)
# T5 construct: also called ARHGEF2; cbe_3694420
# T5 sequence: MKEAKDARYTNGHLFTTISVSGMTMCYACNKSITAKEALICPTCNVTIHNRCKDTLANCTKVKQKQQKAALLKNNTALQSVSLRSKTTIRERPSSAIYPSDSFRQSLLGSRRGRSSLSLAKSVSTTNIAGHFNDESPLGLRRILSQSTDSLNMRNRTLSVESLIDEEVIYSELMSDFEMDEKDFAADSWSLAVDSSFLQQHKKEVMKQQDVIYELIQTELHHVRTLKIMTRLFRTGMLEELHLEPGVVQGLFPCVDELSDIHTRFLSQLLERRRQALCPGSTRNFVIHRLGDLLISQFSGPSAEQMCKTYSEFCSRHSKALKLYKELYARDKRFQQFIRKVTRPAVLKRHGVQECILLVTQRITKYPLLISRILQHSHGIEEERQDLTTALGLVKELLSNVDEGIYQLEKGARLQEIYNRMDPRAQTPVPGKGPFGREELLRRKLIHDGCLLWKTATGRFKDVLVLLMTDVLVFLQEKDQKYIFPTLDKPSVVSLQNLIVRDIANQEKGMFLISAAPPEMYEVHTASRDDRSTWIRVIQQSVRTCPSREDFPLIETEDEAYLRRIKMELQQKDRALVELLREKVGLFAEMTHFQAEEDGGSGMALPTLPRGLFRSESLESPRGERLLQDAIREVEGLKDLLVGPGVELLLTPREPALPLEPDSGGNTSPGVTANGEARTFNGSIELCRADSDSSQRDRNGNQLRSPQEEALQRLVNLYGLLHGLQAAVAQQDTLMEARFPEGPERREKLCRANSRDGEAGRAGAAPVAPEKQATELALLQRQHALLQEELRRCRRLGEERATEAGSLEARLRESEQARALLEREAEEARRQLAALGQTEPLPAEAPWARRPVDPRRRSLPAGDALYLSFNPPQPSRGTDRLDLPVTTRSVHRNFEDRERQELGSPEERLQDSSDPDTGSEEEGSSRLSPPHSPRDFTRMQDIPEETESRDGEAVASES
# B1: Human papillomavirus 11 E2 (other)
# chain: MEAIAKRLDACQDQLLELYEENSIDIHKHIMHWKCIRLESVLLHKAKQMGLSHIGLQVVPPLTVSETKGHNAIEMQMHLESLAKTQYGVEPWTLQDTSYEMWLTPPKRCFKKQGNTVEVKFDGCEDNVMEYVVWTHIYLQDNDSWVKVTSSVDAKGIYYTCGQFKTYYVNFNKEAQKYGSTNHWEVCYGSTVICSPASVSSTVREVSIAEPTTYTPAQTTAPTVSACTTEDGVSAPPRKRARGPSTNNTLCVANIRSVDSTINNIVTDNYNKHQRRNNCHSAATPIVQLQGDSNCLKCFRYRLNDKYKHLFELASSTWHWASPEAPHKNAIVTLTYSSEEQRQQFLNSVKIPPTIRHKVGFMSLHLL
# notes: also called HPV 11 E2; cbe_250781
# Tests used:
# [1] = biological target: T1, Human Papillomavirus 1a L1; experiment: Y2H; INT ID 440
# MT2A = biological target: T6, MT2A (human, UniProt P02795 1-61); experiment: Y2H; INT ID 5
# T6 construct: also called cbe_862174
# SCO1 = biological target: T2, SCO1; experiment: Y2H; INT ID 6
# [2] = biological target: T3, steroid receptor RNA activator 1; experiment: Y2H; INT ID 7
# [3] = biological target: B1; experiment: Y2H; INT ID 14
# KRT8 = biological target: T4, KRT8; experiment: Y2H; INT ID 16
# GPRK5 = biological target: T7, GPRK5 (human, UniProt P34947 1-590); experiment: Y2H; INT ID 27
# T7 construct: also called cbe_2541164
# nucleoporin 214 kDa = biological target: T8, nucleoporin 214 kDa (human, UniProt P35658 2-2090); experiment: Y2H; INT ID 29
# T8 construct: also called NUP214; cbe_3590661
# [4] = biological target: T5, rho/rac guanine nucleotide exchange …; experiment: Y2H; INT ID 30
# CD164 = biological target: T9, CD164 (human, UniProt Q04900 24-197); experiment: Y2H; INT ID 31
# T9 construct: also called cbe_3929669
# MAPK9 = biological target: T10, MAPK9 (human, UniProt P45984 1-424); experiment: Y2H; INT ID 32
# T10 construct: also called cbe_4175362
# T6 sequence (P02795 whole entry): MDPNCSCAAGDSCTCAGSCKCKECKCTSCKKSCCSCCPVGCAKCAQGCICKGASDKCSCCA
# T8 sequence (P35658 2-2090 limits assumed): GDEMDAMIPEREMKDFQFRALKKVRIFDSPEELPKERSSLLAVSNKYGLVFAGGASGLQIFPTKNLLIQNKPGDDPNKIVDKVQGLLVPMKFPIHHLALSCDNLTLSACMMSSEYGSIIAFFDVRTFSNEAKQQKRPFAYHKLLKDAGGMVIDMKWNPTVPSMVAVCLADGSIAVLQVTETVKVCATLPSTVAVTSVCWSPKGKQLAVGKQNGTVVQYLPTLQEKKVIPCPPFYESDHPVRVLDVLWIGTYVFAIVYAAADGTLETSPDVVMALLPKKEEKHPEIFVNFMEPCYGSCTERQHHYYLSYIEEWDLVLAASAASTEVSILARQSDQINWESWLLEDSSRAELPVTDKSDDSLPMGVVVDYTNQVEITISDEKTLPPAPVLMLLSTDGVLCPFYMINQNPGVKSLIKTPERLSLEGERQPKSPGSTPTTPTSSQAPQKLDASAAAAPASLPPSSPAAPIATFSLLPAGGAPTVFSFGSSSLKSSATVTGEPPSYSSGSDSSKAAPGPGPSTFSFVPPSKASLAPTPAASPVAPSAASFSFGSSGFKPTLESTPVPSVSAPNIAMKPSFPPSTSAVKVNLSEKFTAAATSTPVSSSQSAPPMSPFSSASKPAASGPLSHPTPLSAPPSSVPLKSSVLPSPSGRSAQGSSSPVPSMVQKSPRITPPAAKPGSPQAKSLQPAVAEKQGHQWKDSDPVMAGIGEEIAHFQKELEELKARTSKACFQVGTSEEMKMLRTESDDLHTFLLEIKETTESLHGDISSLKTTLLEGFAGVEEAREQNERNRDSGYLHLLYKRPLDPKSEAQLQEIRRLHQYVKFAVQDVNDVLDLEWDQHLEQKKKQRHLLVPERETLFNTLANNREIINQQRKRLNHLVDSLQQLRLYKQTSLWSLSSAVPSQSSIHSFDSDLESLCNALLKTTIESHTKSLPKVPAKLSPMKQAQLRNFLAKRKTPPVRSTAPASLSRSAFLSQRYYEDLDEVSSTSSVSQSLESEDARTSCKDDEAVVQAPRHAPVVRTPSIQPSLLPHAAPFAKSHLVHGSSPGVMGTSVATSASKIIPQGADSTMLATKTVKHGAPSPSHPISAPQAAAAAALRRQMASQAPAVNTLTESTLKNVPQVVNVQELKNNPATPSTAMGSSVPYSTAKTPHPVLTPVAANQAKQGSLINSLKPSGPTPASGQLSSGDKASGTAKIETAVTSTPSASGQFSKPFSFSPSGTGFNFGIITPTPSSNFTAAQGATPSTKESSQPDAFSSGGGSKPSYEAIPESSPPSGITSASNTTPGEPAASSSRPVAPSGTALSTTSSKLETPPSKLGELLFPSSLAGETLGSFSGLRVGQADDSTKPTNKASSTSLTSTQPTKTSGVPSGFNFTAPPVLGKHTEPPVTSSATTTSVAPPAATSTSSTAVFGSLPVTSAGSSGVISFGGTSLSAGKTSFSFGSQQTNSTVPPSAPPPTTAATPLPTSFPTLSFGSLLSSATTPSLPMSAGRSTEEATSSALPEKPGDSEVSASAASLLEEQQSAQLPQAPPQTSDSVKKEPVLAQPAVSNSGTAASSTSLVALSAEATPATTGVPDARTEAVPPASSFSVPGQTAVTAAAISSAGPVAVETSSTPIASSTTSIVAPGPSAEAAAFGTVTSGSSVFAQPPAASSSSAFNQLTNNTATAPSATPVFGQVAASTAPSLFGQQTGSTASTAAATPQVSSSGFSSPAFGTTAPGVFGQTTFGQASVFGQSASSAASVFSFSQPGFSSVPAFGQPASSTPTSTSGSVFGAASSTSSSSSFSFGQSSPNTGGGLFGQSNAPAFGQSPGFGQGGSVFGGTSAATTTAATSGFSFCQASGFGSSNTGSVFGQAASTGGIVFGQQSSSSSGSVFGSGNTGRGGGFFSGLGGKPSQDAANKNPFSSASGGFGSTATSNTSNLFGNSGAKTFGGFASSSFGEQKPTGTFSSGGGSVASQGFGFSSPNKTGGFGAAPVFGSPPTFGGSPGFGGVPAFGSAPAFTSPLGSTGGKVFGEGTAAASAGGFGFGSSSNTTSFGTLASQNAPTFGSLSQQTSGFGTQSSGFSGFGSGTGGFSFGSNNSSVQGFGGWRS
# T9 sequence (Q04900 24-197 limits assumed): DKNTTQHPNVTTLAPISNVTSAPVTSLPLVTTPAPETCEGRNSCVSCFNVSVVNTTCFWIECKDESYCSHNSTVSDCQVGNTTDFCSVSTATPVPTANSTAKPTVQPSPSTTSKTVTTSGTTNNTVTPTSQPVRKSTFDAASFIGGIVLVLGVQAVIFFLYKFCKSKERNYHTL
# T7 sequence (P34947 whole entry): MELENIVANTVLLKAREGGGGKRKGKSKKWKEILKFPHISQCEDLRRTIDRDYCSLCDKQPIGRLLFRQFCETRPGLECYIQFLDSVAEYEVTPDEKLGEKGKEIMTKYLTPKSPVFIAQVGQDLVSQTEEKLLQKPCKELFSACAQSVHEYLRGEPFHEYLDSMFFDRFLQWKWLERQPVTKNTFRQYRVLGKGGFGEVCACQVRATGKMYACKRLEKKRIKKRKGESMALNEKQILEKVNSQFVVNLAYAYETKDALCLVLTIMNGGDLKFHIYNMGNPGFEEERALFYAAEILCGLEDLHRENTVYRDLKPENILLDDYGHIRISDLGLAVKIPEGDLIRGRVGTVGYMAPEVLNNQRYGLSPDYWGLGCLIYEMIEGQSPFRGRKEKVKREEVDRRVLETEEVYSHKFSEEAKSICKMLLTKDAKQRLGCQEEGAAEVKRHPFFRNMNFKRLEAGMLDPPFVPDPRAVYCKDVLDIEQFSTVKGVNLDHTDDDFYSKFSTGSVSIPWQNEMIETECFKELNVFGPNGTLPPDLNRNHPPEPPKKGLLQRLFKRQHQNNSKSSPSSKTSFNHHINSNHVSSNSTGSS
binder,measurement,setting,value
"SCGB1A1 (other, also called cbe_4296923) EICPSFQRVIETLLMDTPSSYEAAMELFSPDQDMREAGAQLKKLVDTLPQKPRESIIKLMEKIAQSSLCN",binding result,[1],binds
"Human papillomavirus 11 E4 (other, also called HPV 11 E4; cbe_250777) MVVPIIGKYVMAAQLYVLLHLYLALYEKYPLLNLLHTPPHRPPPLQCPPAPRKTACRRRLGSEHVDRPLTTPCVWPTSDPWTVQSTTSSLTITTSTKEGTTVTVQLRL",binding result,MT2A,binds
same,binding result,SCO1,binds
same,binding result,[2],binds
"hypothetical gene supported by AL449243 (other, also called Hs.306083; LOC91689) MASGAARWLVLAPVRSGALRSGPSLRKDGDVSAAWSGSGRSLVPSGSVIVTRSGAILPKPVKMSFGLLRVFSIVIPFLYVGTLISKNFAALLEEHDIFVPEDDDDDD",binding result,[3],binds
B1,binding result,KRT8,binds
"Human papillomavirus 11 E6 (other, also called HPV 11 E6; cbe_250808) MESKDASTSATSIDQLCKTFNLSLHTLQIQCVFCRNALTTAEIYAYAYKNLKVVWRDNFPFAACACCLELQGKINQYRHFNYAAYAPTVEEETNEDILKVLIRCYLCHKPLCEIEKLKHILGKARFIKLNNQWKGRCLHCWTTCMEDLLP",binding result,GPRK5,binds
same,binding result,nucleoporin 214 kDa,binds
same,binding result,[4],binds
same,binding result,CD164,binds
same,binding result,MAPK9,binds
